# Measured values published in patent US20250026813A1 (published 2025).
# Molecular target: SARS-CoV-2 spike protein bearing furin mutation and truncation in retention sequence (on pseudoviral envelope) (SARS-CoV-2, UniProt P0DTC2 14-1273)
# Test: cell-based or functional assay
Binder,PV neutralisation IC50 [nM],PV neutralization % (Ab 1 ug/mL) [%]
"YANG-2111 (antibody, V domains shown) VH: GVQLVESGGGLVQPGRSLRLSCAASGFTFDDYALHWVRQVPGKGLEWVSSISWNSDDLGYADSVEGRFTISRDNAKNSLYLQMSSLRTEDTALYYCVKDTRAHYDILAGYRGLDSWGQGTLVTVSS VL: DIVMTQSPLSLPVTPGEPASISCRSTQSLLHSNGYNFLDWYLQKPGQSPQLLIYLGSNRASGVPDRFSGSGSGTDFSLKISRVEAEDIGIYYCIQGLQTPITFGQGTRLEIK",1.33,86.8
"YANG-2102 (antibody, V domains shown) VH: EVKLVESGGGLVQRGGSLRLSCAASGFTFSSHAMYWVRQIPGKGLEWVAGIGVAGDTFYPDSVKGRFTISRENANNSLSLQMDSLRTGDTAIYYCVRDGYSGSYPYHYYGMDVWGQGITVVVSS VL: DIQLTQSPSSLSASVGDSVTITCRASQGIDTYLAWFQQKPGKAPKSLIYVASSLQSGVPSKFSGSGSGTDFTLTISSLLPEDFATYYCQQYKSYPWTFGQGTKVEIK",–,99.4
"YANG-2104 (antibody, V domains shown) VH: EVKLVESGGGLVQPGGSLRLSCAASGFTFSSHAMYWVRQSPGKGLEWVSGIGVAGDTFYVDSVKGRFTISRENARNSLSLQMNSLRAGDTAVYYCARDGYSGTHPYHFYGMDVWGQGITVVVSS VL: DIQMTQSPSSLSASVGDSVTITCRASQDINTYLAWFQQKPGKAPKSLIYVASSLQSGVPSKFSGSGSGTDFTLTISSLLPEDFATYYCQQYKSYPWTFGQGTKVEIK",–,99.3
"YANG-2107 (antibody, V domains shown) VH: QVQLQESGPGLVKPSGTLSLTCAVSGGSIRSSNWWIWVRQSPGKGLEWIGEIYHGGNTNYNPSLKSRVTLSVDKSKNQFSLKLSSVTAADTAVYYCARALYDIGGVFDIWGQGTMVTVSS VL: QSALTQPASVSGSPGQSISISCTGTSSDIGGYNYVSWYQQHPGKAPKLMIYDVSERPSGVSNRFSGSKSGNTASLTISGLQAEDEGDYYCCSYAANSNVVFGGGTKLSVL",0.3,61.2
"YANG-2108 (antibody, V domains shown) VH: QVQLQESGPGQVKPSGTLSLTCAVSGGSIRSSNWWIWVRQPPGKGLEWIGEIYHGGNTNYSPSLKSRVSISVDKSKNHFSLNLTSVTAADTAVYYCARALYDVGGVFDIWGQGTMVTVSS VL: QSALTQPASVSGSPGQSITISCTGSSSDVGGYNYVSWYQQHPGKAPKLMIYDVSERPSGVSNRFSGSKSGNTASLTISGLQAEDEGDYYCCSYAANSNVVFGGGTKLSVL",0.27,81.8
"YANG-1301 (antibody, V domains shown) VH: QVQLVESGGGVVQPGRSLRLSCAASGFTFSSYGMHWVRQAPGKGLEWVAVIWYDGSNKFYADSVKGRFTISRDNSKNTLYLQMNSLKAEDTAVYYCARDTWIGESDTSWLDPWGQGTLVTVSS VL: not shown",0.52,60.4
"YANG-1302 (antibody, V domains shown) VH: QVQLVESGGGAVQPGRSLRLSCRASGFTFSSFGMNWVRQVPGKGLVWVAGIWYDGRNKYYADSVKGRFTISRENSKNMLYLQMNSLRAEDTAVYYCARDQDSGFDGNWFGPWGQGTMVTVSS VL: SYELTQPPSMSVSPGQTASITCSGDNLGDKYVCWYQQRPGQSPVMVIFQDSTRPSGIPERFSGSNSGNTATLTISGTQAMDEADYYCQAWDSNTAVFGGGTKLTVL",0.23,60.3
"YANG-2105 (antibody, V domains shown) VH: EVQLVESGGGLIQPGGSLRLSCAASGLTVSSNYMNWVRQAPGKGLEWVSVIYSGGSTFYTDSVKGRFTISRDNSKNTLNLQMNSLRAEDTAVYYCARDLGIRGGMDVWGQGTTVTVSS VL: DIQLIQSPSFLSASVGDRVTITCWASQGISSYLAWYQQKPGKAPNLLIYAASTLQSGVPSRFSGSGSGTEFTLTISSLQPEDFATYYCQQLDGSLTFGGGTKVEIK",–,99.6
"YANG-2112 (antibody, V domains shown) VH: QVQLVQSGAEVKKPGASVKVSCKVSGFTLTHLSIHWVRQAPGRGLEWMGGFDPVDGQTVYAQNFQGRVTMTEDTSTDTANMDLNNLKSEDTAVYYCATGVVVPAAPYYYSSGMDVWGQGTTVTVSS VL: QSVLTQPPSTSGTPGQRVTISCSGSSSNIAKNYVYWYQQLPGTAPKLLIYRTNQRPSGVPDRFSGSRSGTSASLAISGLRSEDEATYYCATWDDTLSVIFGGGTNLTVL",0.65,88.6
"YANG-1305 (antibody, V domains shown) VH: QVQLVESGGGVVQPGKSLRLSCAASGFAFSSFGMHWVRQAPGTGLEWLAIISFEGTKKYYADSMKGRITISRDNSKNTLYLQMNSLRAEDTAVYYCAADYGDYDDYYYGVHVWGQGTTVTVSS VL: DIQMTQSPSSLSASVGDRVTITCRASQGIANYLAWYQQKPGKVPKLLIYATSTLQSGVPSRFSGSGSGTDFTLTISSLQPEDVAIYYCQKYDSAPFTFGPGTKVDFK",0.42,60.5
"YANG-1303 (antibody, V domains shown) VH: QVQLVQSGTEMKEPGASVKVSCKASGYTFTNYGITWVRQAPGQGLEWMGWLNTNNGDTNYAQKLQGRVTMTTDTSTSTAYMELRSLRSDDTAVYYCARDSVTTYDYWGQGTLVTVSS VL: SYELTQPPSVSVSPGQTARITCSGDALPKKYAYWFQQKSAQAPVLVIYEDSKRPSGIPERFSGSSSGTMATLTINGAQVEDEAAYYCYSLDSSGNHWVFGGGTKLTVL",–,46.3
"YANG-1304 (antibody, V domains shown) VH: QVQLQQWGAGLVKTSETLSLTCAVYGGSFNDHYWSWIRQPPGKGLEWIGEINHSGSTNYNPSLKSRVTMSLDTSKNQFSLKLRSLTAADTAMYYCAIEGIWGQGAMVTVSS VL: SYELTQPPSVSVSPGQTARITCSGDALPIKYVHWYQQKSGQAPVLVIYEDSKRPSGIPERISGSSSGTMATLTMSGAQVEDEADYYCYSTDSSGNHWVFGGGTKLTVL",–,41.5
"YANG-2201 (antibody, V domains shown) VH: QEQLVESGGGVVQPGMSLRLSCAASGFTFSNYGMHWVRQSPGKGLEWVTFISYDGNNEYYVDSVKGRFTISRDNSKNTLFLQMNSLRAEDAAVYYCAKDRALNLYYFDSWGPGTLVTVSS VL: DIVMTQPPLSLPVTPGEPASISCRSSQSLLHNNAYNHLNWYLQKPGQSPQFLIYLGSNRASGVPDRFSGSGSGTDFTLKISRVEAEDVGVYYCMQSLQIPITFGQGTRLEIK",–,35.2
"YANG-2103 (antibody, V domains shown) VH: EAQLVESGGGLIQSGGSLRLSCIASGLTVNSNYMNWVRQAPGKGLEWVSVIYSGGTTFYADSVKGRFTISRDNSKNTLYLQMTSLRAEDTAVYYCAREGYGMDVWGQGTTVTVSS VL: SYVLTQPPSVSVAPGKTARINCGGNNFGSKSVHWYQQKPGQAPVLVIYYDSDRPSGIPERFSGSNSGNTATLTISRVEAGDEADYYCQVWDNSSDHFVFGAGTKVTVL",–,97.7
"YANG-2110 (antibody, V domains shown) VH: EVQLVESGGGLIQPGGSLRLSCAASGFIVSRNYMSWVRQAPGKGLDWVSVIYSGGSTYYADSVKGRFTISRDNSKNTLYLQMNSLRAEDTAVYYCARSIAVAGEGLDSWGQGTLVTVSS VL: EIVMTQSPATLSLSPGDRATLSCRASQSVSNIFISWYQQKPGQAPRLLIYGASIRATDIPARFSGSGSGTDFTLTISSLQPEDFAIYFCQQDYNLPLTFGGGTKVEIK",–,99.9
"YANG-2109 (antibody, V domains shown) VH: QVQLVQSGAEVKKPGSSVKVSCKASGGTFSGYTISWIRQAPGQGLEWMGGIIPSFGSLNYGQKFQDRVSITTDELKSTVYMELSSLNSEDTAIYYCTRESITSGYYYGMAVWGQGTTVTVSS VL: DIQMTQSPSSLSASVGDRVTITCRASQGIRDDLGWFQQKPGKAPKRLISAASSLQSGVPSRFSGSGSGTEFTLTISSLQPEDFATYYCLQHNSYPLTFGGGTKVEIR",0.5,95
"YANG-2101 (antibody, V domains shown) VH: EVQLVESGGGLVQPGGSLRLSCAASGFTFSLYDMHWVRQATGKGLEWVAGVGIAGDTIYPDSVKGRFTISRENAKNSFFLQMNRLRAGDTAVYYCVRGGTGTTFFDYWGQGVLVTVSS VL: DIQMTQSPSSLSASVGDRVTVTCRASQDITNYLAWFQQKPGKAPKSLIYSASSLQGGTPSKFSGSGSGTEFTLTISSLQPEDFATYYCQQYNSFPLTFGGGTKVEIK",–,100
"YANG-1402 (antibody, V domains shown) VH: EVQLVESGGGLIQPGGSLRLSCAASGVTVSSNYMNWVRQAPGKGLEWVSVIYSGGSTYYADSVKGRFTISRDNSKNTLYLQMNSLRVEDTAVYYCARDIGDYGMDVWGQGTTVTVSS VL: DIQLTQAPSFLSASVGDRLTITCWASQGISSYLAWYQQKPGKAPKILIYAASTLQSGVPSRFSGSGSGTEFTLTISSLQPEDFATYYCQQLNSYPLIFGGGTKVEIK",–,94.5
"YANG-1401 (antibody, V domains shown) VH: QVHLQESGPGLVKPSGTLSLTCAVSGGSFSQINWWSWVRQSPGKGLEWIGEIYHSGSTNYNPSLKSRVTMSVDKSKNQFSLALNSVTAADTAVYYCARGYYGDNWFDSWGQGTLVTVSS VL: DIQMTQSPSSLSASIGDRVTITCRASQGISNWLVWYQQKPEKAPKSLIYAASSLQSGVPSRFSGSGSGTDFTLTISSLHPEDFATYYCQQYSDYPLTFGGGTKVEIK",0.53,91.6
"YANG-1403 (antibody, V domains shown) VH: QVQLVESGGGVVQPGRSLRLSCAASGFTFSNYGMHWVRQAPGKGLEWVAVIWYDGSNKYYADSVKGRFTISRDNSKNTLYLQMNSLRAEDTAVYFCVRETVTDGMDVWGQGTTVTVSL VL: NIQMTQSPSAMSASVGDRVTITCRARQDISNYLAWFQQKPGKVPKHLIYAASSLLSGVPSRFSGSGSGTEFTLTISSLQPEDFATYYCLHHNGYPWTFGQGTKVEIK",–,99.3
"YANG-2106 (antibody, V domains shown) VH: QVQVVESGGGVVQPGRSLRLSCSASGFTFSTYGMHWVRQAPGKGLEWVAVIWYDGSNKYYADSVKGRFIISRDNSKNTLYLQMSSLRPDDTAVYYCVREGVADGMGVWGQGTTVTVSS VL: NIQMTQSPSAMSASVGDRVTITCRARQDISTYLAWFQQKPGKVPKHLIYAASTLLSGVPSRFGGSGSGTEFTLTITSLQPEDFATYYCLHHNNYPWTFGQGTKVEIK",–,93.3
